Results taken from patent US20160257756A1 (CONSEJO SUPERIOR DE INVESTIGACIONES CIENTIFICAS C S I C, published 2016).

Molecular target: T1, human chemokine receptor CCR9 (human, UniProt P51686 1-369, N-glycosylated at Asn32 on cells (removed by PNGase F in some Western blots); the letters do not carry this)
T1 construct: On stably transfected HEK293 cells, endogenous on MOLT-4 cells, thymocytes and blood lymphocytes; also as membrane extracts in Western blots (with or without PNGase F); also called hCCR9; human CCR9
T1 sequence: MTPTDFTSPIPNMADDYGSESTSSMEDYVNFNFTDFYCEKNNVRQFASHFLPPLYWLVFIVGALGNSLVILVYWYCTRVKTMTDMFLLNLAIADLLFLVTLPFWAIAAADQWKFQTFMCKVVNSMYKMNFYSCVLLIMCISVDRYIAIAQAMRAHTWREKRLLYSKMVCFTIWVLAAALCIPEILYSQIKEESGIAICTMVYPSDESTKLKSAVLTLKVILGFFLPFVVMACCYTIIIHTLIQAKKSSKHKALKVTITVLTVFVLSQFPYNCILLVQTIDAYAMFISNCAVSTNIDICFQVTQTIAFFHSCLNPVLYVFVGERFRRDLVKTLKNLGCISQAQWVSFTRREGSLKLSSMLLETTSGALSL
Test: flow cytometry on MOLT-4 cells, hCCL25 10 µg/ml before 91R (0.5 µg/ml)
Experimental: To study whether CCL25 affects CCR9 recognition by 91R, MOLT-4 cells were preincubated alone or with hCCL25, in the presence of sodium azide to inhibit receptor internalization (40 min, 4° C.), followed by incubation with 91R and flow cytometry analysis.

B1: recombinant human CCL25 (ligand, UniProt O15444 24-150, looked up)
chain: QGVFEDCCLAYHYPIGWAVLRRAWTYRIQEVSGSCNLPAAIFYLPKRHRKVCGNPKSREVQRAMKLLDARNKVFAKLHHNTQTFQAGPHAVKKLSSGNSKLSSSKFSNPISSSKRNVSLLISANSGL
notes: Bought (Peprotech); also called hCCL25; TECK
binding result: binds
